From patent US8067155B2, “Receptor tyrosine kinase assays” (DiscoveRx Corporation, priority 2008, dated 2011) come the findings set out here.

In assay [1] the target is TrkB fused to a low affinity small fragment of β-galactosidase (TrkB-PK) (UniProt Q16620). Nature of the assay: cell-based or functional assay.
For another assay, the target named is T1, insulin receptor (INSR) (Homo sapiens, UniProt P06213).
T1 construct: host or cells: U2OS
In words: PathHunter INSR-PK / SH2-containing protein-EA assay in U2OS cells, agonist mode. It is filed as cell-based. The settings on record: U2OS INSR-PK cells, 10,000 cells/well, 3 hours at room temperature.

Assay [2] deals with TrkC fused to a low affinity small fragment of β-galactosidase (TrkC-PK) (UniProt Q16288). Nature of the assay: cell-based or functional assay.
The next assay deals with T2, TrkC (Homo sapiens, UniProt Q16288).
T2 construct: host or cells: U2OS
Nature of the assay: PathHunter TrkC-PK / SH2-containing protein-EA assay in U2OS cells, agonist mode. It is filed as cell-based. The settings on record: 3 hours at room temperature. The protocol:
FIG. 8 is a graph of the dose response in U2OS cells of TrkC fused to a low affinity small fragment of β-galactosidase (TrkC-PK). Cells were plated in a 384-well plate at 10,000 cells/well, stimulated with NT3 (Peprotech, Cat #/450-03), a known ligand for TrkC, for 3 hours at room temperature according to the assay procedure provided. Following stimulation, detection reagents were added and signal was detected after 1 hour using the PathHunter® Detection Kit (93-0001).
(§1) Generally, the expression constructs for the fusion proteins includes at least (in order of 5′ to 3′) a promoter, followed by the receptor or SH2 domain, followed by a linker, followed by either the EA or PK. […] SH2-EA complex formation with the RTK was detected with 50% (v/v) of PathHunter® Detection Reagent (Dx 93-0001, PathHunter reagents are available from DiscoveRx, Corp., Fremont, Calif.) (Lysis buffer active ingredient 1% CHAPS, Emerald II™ and Galacton Star™ are from Applied Biosystems).
10K cells/well TrkC-PK SH2-containing protein-EA double stable cells were plated in a 384-well plate, stimulated with NT3 (Peprotech, Cat #/450-03), a known ligand for TrkC for 3 hours at room temperature according to the assay procedure provided. Following stimulation, detection reagents were added and signal was detected after 1 hour using the PathHunter® Detection Kit (93-0001).

In a further assay the target is T3, TrkB (Homo sapiens, UniProt Q16620).
T3 construct: host or cells: U2OS
In words: PathHunter TrkB-PK / SH2-containing protein-EA assay in U2OS cells, agonist mode. The assay is classed as cell-based. The settings on record: 3 hours at room temperature. The procedure:
FIG. 7 is a graph of the dose response in U2OS cells of TrkB fused to a low affinity small fragment of β-galactosidase (TrkB-PK). Cells were plated in a 384-well plate at 10,000 cells/well stimulated with BDNF (Peprotech, Cat #/450-02), a known ligand for TrkB, for 3 hours at room temperature according to the assay procedure provided. Following stimulation, detection reagents were added and signal was detected after 1 hour using the PathHunter® Detection Kit (93-0001).
as §1
10K cells/well TrkB-PK SH2-containing protein-EA double stable cell were plated in a 384-well plate, stimulated with BDNF (Peprotech, Cat #/450-02), a known ligand for TrkB for 3 hours at room temperature according to the assay procedure provided. Following stimulation, detection reagents were added and signal was detected after 1 hour using the PathHunter® Detection Kit (93-0001).

Assay [3] concerns the target G-CSFR (granulocyte-colony stimulating factor receptor) fused to a low affinity small fragment of … (UniProt Q99062 25-836, tyrosine-phosphorylated on activation (by Jak2); sites not stated). In words: cell-based or functional assay.

Chain of G-CSFR (granulocyte-colony stimulating factor receptor) fused to a low affinity small fragment of … (Q99062 other isoform, or with tags, fused parts or gaps): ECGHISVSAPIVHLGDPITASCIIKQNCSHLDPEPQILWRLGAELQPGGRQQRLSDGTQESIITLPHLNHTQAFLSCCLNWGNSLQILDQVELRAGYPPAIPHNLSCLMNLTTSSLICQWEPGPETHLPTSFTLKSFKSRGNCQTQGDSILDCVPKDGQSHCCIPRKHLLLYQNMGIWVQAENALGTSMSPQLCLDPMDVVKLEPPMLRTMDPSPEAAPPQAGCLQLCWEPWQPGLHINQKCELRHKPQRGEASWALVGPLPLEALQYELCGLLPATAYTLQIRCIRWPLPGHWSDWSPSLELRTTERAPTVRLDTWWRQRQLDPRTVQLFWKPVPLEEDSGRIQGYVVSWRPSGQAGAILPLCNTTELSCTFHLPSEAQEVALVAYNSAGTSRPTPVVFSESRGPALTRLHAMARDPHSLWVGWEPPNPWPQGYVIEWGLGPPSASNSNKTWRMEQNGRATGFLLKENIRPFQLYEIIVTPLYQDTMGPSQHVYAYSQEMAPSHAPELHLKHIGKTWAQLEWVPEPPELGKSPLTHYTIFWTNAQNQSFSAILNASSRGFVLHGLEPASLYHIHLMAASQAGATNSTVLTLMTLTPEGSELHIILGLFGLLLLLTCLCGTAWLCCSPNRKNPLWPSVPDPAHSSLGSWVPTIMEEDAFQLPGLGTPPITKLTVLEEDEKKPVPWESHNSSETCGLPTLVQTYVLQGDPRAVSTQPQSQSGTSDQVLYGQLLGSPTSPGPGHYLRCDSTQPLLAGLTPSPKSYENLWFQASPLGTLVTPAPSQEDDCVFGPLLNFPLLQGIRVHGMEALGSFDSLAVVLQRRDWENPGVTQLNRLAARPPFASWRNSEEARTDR

In assay [1], “BDNF (Peprotech, Cat #/450-02) (from UniProt P23560 129-247) (ligand)” displayed an EC50 of the BDNF dose response (PathHunter β-galactosidase complementation of TrkB-PK and SH2-containing protein-EA in U2OS cells) of 4.21 ng/mL; an assay window of the BDNF dose response (PathHunter β-galactosidase complementation of TrkB-PK and SH2-containing protein-EA in U2OS cells) of 4 fold.

As usually defined, the EC50 is the concentration at which the effect is half-maximal. The low end stands for an effect from little substance, the high end for a need for much substance. In the assay with insulin receptor (INSR), “IGF1: IGF1 (Peprotech, Cat AF-100-11), a known ligand for IGF1R” returned a 50% effective concentration (EC50) of 2.0 ng/mL. “NT3 (Peprotech, Cat #/450-03) (from UniProt P20783 139-257) (ligand)”: in assay [2], the EC50 of the NT3 dose response (PathHunter β-galactosidase complementation of TrkC-PK and SH2-containing protein-EA in U2OS cells) turned out to be 7 ng/mL; the assay window of the NT3 dose response (PathHunter β-galactosidase complementation of TrkC-PK and SH2-containing protein-EA in U2OS cells) is 8.1 fold. In the assay with TrkC (U2OS TrkC-PK cells, 10,000 cells/well), “NT3: NT3 (Peprotech, Cat 450-03), a known ligand for TrkC” displayed an EC50 of 7 ng/mL. For the same molecule, the assay window in the assay with TrkC (U2OS TrkC-PK cells) was 8.1 fold.

B1: BDNF: BDNF (Peprotech, Cat 450-02), a known ligand for TrkB (protein, UniProt P23560 19-247, looked up)
Neurotrophic factor BDNF …: APMKEANIRGQGGLAYPGVRTHGTLESVNGPKAGSRGLTSLADTFEHVIEELLDEDQKVRPNEENNKDADLYTSRVMLSSQVPLEPPLLFLLEEYKNYLDAANMSMRVRRHSDPARRGELSVCDSISEWVTAADKKTAVDMSGGTVTVLEKVPVSKGQLKQYFYETKCNPMGYTKEGCRGIDKRHWNSQCRTTQSYVRALTMDSKKRIGWRFIRIDTSCVCTLTIKRGR
B1 returned an EC50 in the assay with TrkB (U2OS TrkB-PK cells, 10,000 cells/well) of 4.21 ng/mL. Also, the assay window with TrkB (U2OS TrkB-PK cells) is 4.0 fold.

B2: G-CSF (Peprotech 300-23) (ligand, UniProt P09919-2 31-204, looked up)
chain: TPLGPASSLPQSFLLKCLEQVRKIQGDGAALQEKLCATYKLCHPEELVLLGHSLGIPWAPLSSCPSQALQLAGCLSQLHSGLFLYQGLLQALEGISPELGPTLDTLQLDVADFATTIWQQMEELGMAPALQPTQGAMPAFASAFQRRAGGVLVASHLQSFLEVSYRVLRHLAQP
As to B2, in assay [3], the “EC50 of the G-CSF dose response (PathHunter β-galactosidase complementation of CSF3R-PK and SHC1-EA in U2OS cells, Jak2 construct)” value came to 4 ng/mL; the “assay window of the G-CSF dose response (PathHunter β-galactosidase complementation of CSF3R-PK and SHC1-EA in U2OS cells, Jak2 construct)” value was found to be 7 fold.
